The record followed here is patent publication US20240132579A1 (DOTBIO PTE, published 2024).

Experiment [1] deals with VEGFA (UniProt P15692-4 27-191, limits assumed). Briefly: method not stated.
The target in experiment [2] is T1, Biotinylated human VEGF-165 (Acro Biosystem) (human, UniProt P15692 207-395, biotinylated (site not stated)).
T1 construct: Bought protein; also called human VEGFA
Briefly: BLI, biotinylated VEGF on streptavidin tips, 1:1 global fit. The protocol: (§1) Binding characterization was performed using BLI (Satorius) at RT with a 1000 rpm flow-rate. Biotinylated human VEGF-165 (Acro Biosystem) was immobilized onto Streptavidin-coated tips at a concentration of 3 μg/mL for 60 sec in BLI buffer (0.1% BSA and 0.01% Tween-20 in PBS). After a 30 sec baseline, anti-VEGFA DotBodies were associated at 8 different concentrations, including a blank reference, in BLI buffer for 60 sec, followed by a 400 sec dissociation in BLI buffer. The background buffer signal was subtracted using the 0 nM concentration reference, and the kinetics of binding were calculated using a global fit following a 1:1 binding model, using BLI Analysis Software. The bivalent molecule 16A2.1×2 was also characterized as described here, but with a 600 sec dissociation. To characterize the binding of all the clones against murine VEGFA, the same procedure was employed, but the immobilized target was replaced with biotinylated murine VEGF-164 (Acro Biosystem).

For experiment [3], the target named is T2, biotinylated murine VEGF-164 (Acro Biosystem) (mouse, UniProt Q00731-2 27-190, biotinylated (site not stated)).
T2 construct: also called Mouse VEGF164; murine VEGFA
T2 sequence (looked up): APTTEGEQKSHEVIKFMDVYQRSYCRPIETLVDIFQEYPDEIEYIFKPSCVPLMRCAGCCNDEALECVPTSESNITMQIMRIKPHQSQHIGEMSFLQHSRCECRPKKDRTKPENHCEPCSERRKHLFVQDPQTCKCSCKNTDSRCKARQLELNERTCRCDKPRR
Described as above. The protocol:
as §1

In experiment [4] the target is T3, Human VEGF-121 (Acro Biosystems) (human, UniProt P15692 207-395).
T3 construct: Bought protein; also called human VEGFA
T3 sequence: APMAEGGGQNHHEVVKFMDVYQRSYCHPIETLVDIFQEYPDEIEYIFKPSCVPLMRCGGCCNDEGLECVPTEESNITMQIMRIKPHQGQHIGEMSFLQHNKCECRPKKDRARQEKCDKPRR
Briefly: competitive ELISA: inhibition of 0.5 nM human VEGF-121 binding to coated VEGFR1 (FIG. 4). The protocol: (§2) To perform the competitive ELISA, the VEGFR1 was immobilized at a concentration of 2 μg/mL onto a Maxisorp 96-well plate (Thermo Scientific) overnight at 4° C., washed three times with PBS and blocked for 1 h at RT with ELISA Block Buffer (EBB: 0.2% BSA in PBST). […] The samples were incubated for 2 h at RT, and 50 μL transferred onto the VEGFR1-coated plate. After 2 h incubation, the plate was washed 3 times with PBST. 50 μL of streptavidin-HRP conjugate (Thermo Scientific) was added at a 1:5,000 dilution in EBB, and incubated for 1 h at RT. The plate was washed 5 times with PBST, and developed with 50 μL 3,3′,5,5′-Tetramethylbenzidine (TMB) substrate (GeneTex). After 5-15 min, the reactions were stopped by adding 50 μL of 2M H₂SO₄, and signal was measured at an absorbance of 450 nm.
(In an ELISA, binding on a coated surface is turned into a signal by an enzyme label.)

Experiment [5] has as its target T3, Human VEGF-121 (Acro Biosystems). As to the kind of experiment: competitive ELISA: inhibition of 0.5 nM human VEGF-121 binding to coated VEGFR1 (FIG. 5). The method, then:
as §2

B1: anti-VEGFA DotBody 16C2.1 (VHH)
VHH: EVQLVESGGGLVQPGGSLRLSCAISGFSLAATDIDWVRQAPGKGLEWVARIFSPSDFTDYADSVKGRFTISADTSKNTVYLQMNSLRAEDTAVYYCGRPDTYAYNIFLDTPTYNALHYRGQGTLVTVSS
notes: Humanized, stabilized autonomous VH domain (single domain antibody, 'DotBody') derived from the trastuzumab VH
B1: the results for the Kd in experiment [1], in experiment [2] and in experiment [3] were under 5 nM, 3 nM and 14.6 nM, respectively. Also, the off-rate constant (koff) in experiment [2] stood at 0.00032 s⁻¹; in experiment [3], 0.00173 s⁻¹. Further, the figures for the association rate constant (kon) in experiment [2] and in experiment [3] were 106000 M⁻¹ s⁻¹ and 118000 M⁻¹ s⁻¹, respectively. The IC50 in experiment [4] stood at 2.3 nM; in experiment [5], 1.8 nM.

B2: anti-VEGFA DotBody 21A5.1 (VHH)
VHH: EVQLVESGGGLVQPGGSLRLSCAISGFSLVETDIDWVRQAPGKGLEWVARIFLPSGSTYYADSVKGRFTISADTSKNTVYLQMNSLRAEDTAVYYCGSPDTYAYNIFLDTPAYKGLSYRGQGTLVTVSS
Take B2: in experiment [2], the Kd was 3.37 nM, the koff is 0.000363 s⁻¹ and the on-rate constant (kon) was 105000 M⁻¹ s⁻¹. In addition, in experiment [3], the Kd was found to be 15.3 nM, the koff was 0.00128 s⁻¹ and the on-rate (kon) was found to be 83600 M⁻¹ s⁻¹. The molecule also returned an IC50 in experiment [5] of 12.8 nM.

Broadly, the Kd is the constant that tells how readily two partners part at equilibrium. As usually defined, the koff is a measure of how fast the partners let go of each other. Lower therefore signals a long-lived complex. In general, kon refers to the second-order rate constant of association. The IC50 is the concentration that gives 50% inhibition. Read a high IC50 as weaker potency.
